Source: publication PMC5080355, “Interaction of the Nitrogen Regulatory Protein GlnB (PII) with Biotin Carboxyl Carrier Protein (BCCP) Controls Acetyl-CoA Levels in the Cyanobacterium Synechocystis sp. PCC 6803” (Frontiers in Microbiology, 2016)

Target: E. coli biotin carboxyl carrier protein (His-BCCP), subunit of acetyl-CoA carboxylase (E. coli) (UniProt P0ABD8)

GlnB (PII) from Synechococcus elongatus PCC7942, wild type, sequence (P0A3F4 whole entry): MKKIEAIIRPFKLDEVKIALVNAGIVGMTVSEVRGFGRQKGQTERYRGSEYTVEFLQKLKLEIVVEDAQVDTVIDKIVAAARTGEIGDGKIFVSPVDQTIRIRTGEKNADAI

EC50 of inhibition of reconstituted E. coli ACC activity by increasing GlnB (coupled PK/LDH assay, 10 mM ATP): 310 nM | maximum inhibition of reconstituted E. coli ACC activity (coupled PK/LDH assay, 10 mM ATP): 93%
Substance: GlnB (PII) from Synechococcus elongatus PCC7942, wild type (from UniProt P0A3F4 1-112) (natural protein)
